# Source: US20180066058A1
# Legend:
# [1] = target: human ICOS-mFc (Chimerigen) (human) (UniProt Q9Y6W8); experiment: HTRF neutralisation of Alexa 647 human B7-H2 binding to human ICOS-mFc; hamster IgG, run with the IgG4.PE mAbs; mean, n = 4
# [2] = target: mouse ICOS-mFc (Chimerigen) (mouse) (UniProt Q9WVS0); experiment: HTRF neutralisation of Alexa 647 mouse B7-H2 binding to mouse ICOS-mFc; hamster IgG, run with the IgG4.PE mAbs; mean, n = 3
# [3] = target: human ICOS-mFc (Chimerigen) (human) (UniProt Q9Y6W8); experiment: HTRF neutralisation of Alexa 647 human B7-H2 binding to human ICOS-mFc; hamster IgG, run with the IgG1 mAbs; mean, n = 4
# [4] = target: mouse ICOS-mFc (Chimerigen) (mouse) (UniProt Q9WVS0); experiment: HTRF neutralisation of Alexa 647 mouse B7-H2 binding to mouse ICOS-mFc; hamster IgG, run with the IgG1 mAbs; mean, n = 3
# [5] = target: mouse ICOS-mFc (Chimerigen) (mouse) (UniProt Q9WVS0); experiment: HTRF neutralisation of Alexa 647 mouse B7-H2 binding to mouse ICOS-mFc; hamster IgG, run with the IgG1 mAbs
# Sequence of mouse ICOS-mFc (Chimerigen) (mouse) (Q9WVS0 21-141 limits assumed, change not shown): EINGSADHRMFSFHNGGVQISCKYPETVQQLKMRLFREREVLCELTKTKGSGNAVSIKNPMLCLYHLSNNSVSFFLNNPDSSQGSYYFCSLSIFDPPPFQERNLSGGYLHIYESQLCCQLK
# Sequence of human ICOS-mFc (Chimerigen) (human) (Q9Y6W8 21-140, change not shown): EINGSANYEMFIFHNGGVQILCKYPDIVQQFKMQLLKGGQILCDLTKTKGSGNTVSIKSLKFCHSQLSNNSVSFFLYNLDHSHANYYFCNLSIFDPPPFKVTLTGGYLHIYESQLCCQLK
substance,measurement,setting,value
Anti-ICOS antibody C398.4A (hamster IgG),IC50,[1],2.8 nM
same,IC50,[2],0.2 nM
same,IC50,[3],1.2 nM
same,IC50,[4],0.1 nM
same,IC50,[5],0.14 nM
